Laboratory results published in patent US20210388087A1 (Chugai, published 2021).
Residue numbers refer to the chain shown, from its start.

B1: CE115HA000/GLS3000 S26D (antibody, IgG1, name in Kabat numbering, V domains shown)
VH: QVQLVESGGGVVQPGRSLRLSCAASGFTFSNAWMHWVRQAPGKGLEWVAQIKAKSNNYATYYAESVKGRFTISRDDSKNSLYLQMNSLKTEDTAVYYCRYVHYGAYYGVDAWGQGTTVTVSS
VL: DIVMTQSPLSLPVTPGEPASISCRSDQSLVHSNRNTYLHWYQQKPGQAPRLLIYKVSNRFSGVPDRFSGSGSGTDFTLKISRVEAEDVGVYYCGQGTQVPYTFGQGTKLEIK
notes: one-arm IgG1
B2: CE115HA000/GLS3000 S27aY (antibody, IgG1, name in Kabat numbering, V domains shown)
VH: B1 VH
VL: B1 VL with D26S, S28Y
notes: one-arm IgG1
B3: CE115HA000/GLS3000 S27aP (antibody, IgG1, name in Kabat numbering, V domains shown)
VH: B1 VH
VL: B1 VL with D26S, S28P
notes: one-arm IgG1
B4: CE115HA000/GLS3000 S27eE (antibody, IgG1, name in Kabat numbering, V domains shown)
VH: B1 VH
VL: B1 VL with D26S, S32E
notes: one-arm IgG1
B5: CE115HA000/GLS3000 S27eI (antibody, IgG1, name in Kabat numbering, V domains shown)
VH: B1 VH
VL: B1 VL with D26S, S32I
notes: one-arm IgG1
B6: CE115HA000/GLS3000 S27eD (antibody, IgG1, name in Kabat numbering, V domains shown)
VH: B1 VH
VL: B1 VL with D26S, S32D
notes: one-arm IgG1
B7: CE115HA000/GLS3000 S26P (antibody, IgG1, name in Kabat numbering, V domains shown)
VH: B1 VH
VL: B1 VL with D26P
notes: one-arm IgG1
B8: CE115HA000/GLS3000 S27aN (antibody, IgG1, name in Kabat numbering, V domains shown)
VH: B1 VH
VL: B1 VL with D26S, S28N
notes: one-arm IgG1
B9: CE115HA000/GLS3000 S27aE (antibody, IgG1, name in Kabat numbering, V domains shown)
VH: B1 VH
VL: B1 VL with D26S, S28E
notes: one-arm IgG1
B10: CE115HA000/GLS3000 S26E (antibody, IgG1, name in Kabat numbering, V domains shown)
VH: B1 VH
VL: B1 VL with D26E
notes: one-arm IgG1
B11: CE115HA000/GLS3000 S27aI (antibody, IgG1, name in Kabat numbering, V domains shown)
VH: B1 VH
VL: B1 VL with D26S, S28I
notes: one-arm IgG1
B12: CE115HA000/GLS3000 S27aD (antibody, IgG1, name in Kabat numbering, V domains shown)
VH: B1 VH
VL: B1 VL with D26S, S28D
notes: one-arm IgG1
B13: CE115HA000/GLS3000 S27eK (antibody, IgG1, name in Kabat numbering, V domains shown)
VH: B1 VH
VL: B1 VL with D26S, S32K
notes: one-arm IgG1
B14: CE115HA000/GLS3000 S27eH (antibody, IgG1, name in Kabat numbering, V domains shown)
VH: B1 VH
VL: B1 VL with D26S, S32H
notes: one-arm IgG1
B15: CE115HA000/GLS3000 S27aG (antibody, IgG1, name in Kabat numbering, V domains shown)
VH: B1 VH
VL: B1 VL with D26S, S28G
notes: one-arm IgG1
B16: CE115HA000/GLS3000 S27eF (antibody, IgG1, name in Kabat numbering, V domains shown)
VH: B1 VH
VL: B1 VL with D26S, S32F
notes: one-arm IgG1
B17: CE115HA000/GLS3000 S27eG (antibody, IgG1, name in Kabat numbering, V domains shown)
VH: B1 VH
VL: B1 VL with D26S, S32G
notes: one-arm IgG1

target: T1, CD3 epsilon homodimer protein (UniProt P07766 23-126); assay: SPR, antibody over immobilised CD3e homodimer;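 also: SPR at 25 °C with CD3 epsilon homodimer amine-coupled to a CM4 sensor chip and antibody flowed over as analyte in HBS-EP+ running buffer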
T1 construct: also called CD3 (CD3 epsilon)
T1 sequence (P07766 23-126): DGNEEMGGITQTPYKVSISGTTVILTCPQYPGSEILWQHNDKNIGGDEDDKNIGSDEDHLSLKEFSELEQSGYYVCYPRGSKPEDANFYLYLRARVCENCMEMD

Row | Binder | KD ratio to GLS3000
1 | B1 | 1.06
2 | B2 | 0.93
3 | B3 | 1.01
4 | B4 | 1.04
5 | B5 | 1.05
6 | B6 | 1.23
7 | B7 | 0.67
8 | B8 | 0.98
9 | B9 | 0.94
10 | B10 | 0.9
11 | B11 | 0.87
12 | B12 | 0.94
13 | B13 | 1.32
14 | B14 | 1.09
15 | B15 | 0.8
16 | B16 | 1.16
17 | B17 | 1.03
